Experimental data from patent publication US5807943A, “Synthesis of glycopolymers” (Johns Hopkins University, priority 1997, dated 1998).

How the values were obtained:
serum-MBP-CRD = biological target: T1, serum-MBP-CRD (Rattus norvegicus, UniProt P19999); test: Solid-phase binding assay, inhibition of 125I-[mannose30-BSA] binding to serum MBP-CRD; details: in the concentration range of SBA tested
T1 construct: Recombinant rat MBP-CRDs from serum and liver were expressed and purified; made in house; host or cells: bacteria (expression plasmid-bearing bacterial strains, gift of Dr. Kurt Drickamer)
Method: (§1) Glycoamidase A was from Seikagaku America, Inc. (Rockville, Md.). GlcNAc was purchased from Pfanstiehl Laboratories, Inc. (Waukegan, Ill.). 3-(N-acryloylamino)-propyl β-D-GlcNAc (GlcNAc-NAP) and GlcNAc-O-(CH2)3CH=CH2 were gifts from Dr. Shin-Ichiro Nishimura of Hokkaido University, Japan.
(§2) All steps were carried out at 4° C. Briefly, CRD (50 μl) was coated onto individual polystyrene wells (Immulon 4 Removawell Strips by Dynatech, from Fisher Scientific). […] Ligands and inhibitors were in 0.5% BSA in the above Tris buffer for binding and inhibition. […] The well contents were then removed, washed, and counted in a Packard Minaxi gamma counter.

liver-MBP-CRD = biological target: T2, liver-MBP-CRD (Rattus norvegicus, UniProt P08661); test: Solid-phase binding assay, inhibition of 125I-[mannose30-BSA] binding to liver MBP-CRD
T2 construct: Recombinant rat MBP-CRDs from serum and liver were expressed and purified; made in house; host or cells: bacteria (expression plasmid-bearing bacterial strains, gift of Dr. Kurt Drickamer)
T2 sequence (P08661 129-241 limits assumed): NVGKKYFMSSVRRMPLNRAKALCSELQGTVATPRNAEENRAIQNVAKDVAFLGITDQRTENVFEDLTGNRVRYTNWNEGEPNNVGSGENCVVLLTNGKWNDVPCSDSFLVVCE
Method: as §1, §2

inhibition of the serum-MBP-CRD (in words) (serum-MBP-CRD): no significant inhibition
IC50 (liver-MBP-CRD; concentration based on Man9 GlcNAc2, 4° C., 20 hr incubation, read-out: I50 for the liver-MBP-CRD): 13.2 µM
I50 for the liver-MBP-CRD (liver-MBP-CRD; expressed as mg/ml of SBA): 0.4 mg/mL
Substance: soybean agglutinin [SBA]
